In US20260234290 one finds koff data, which are given here for one sequence.

Holding throughout (experiment): BLI
(In general: In BLI a coated tip is dipped into the sample, and binding shifts an interference pattern.)

One data set deals with 2B12 Fab. Conditions: 2 uM Fab; RT; weak binder; printed as second 3B12 in Table 4, 2B12 in text.
The subject of the next data set is 2C11 Fab. The note with it: 2 uM Fab; RT; weak binder.
In the next data set the test system is 3B11 Fab. Conditions: 2 uM Fab; RT; described as weak binding.
Another data set has as its system 3B12 Fab. The note with it: 2 uM Fab; RT; described as weak binding.
In the next data set the test system is 3C8 Fab. The note with it: 2 uM Fab; RT; described as weak binding.

By koff is commonly meant a measure of how fast the partners let go of each other. For “CATTTCCCGTAAATC (double strand) [CS3D (cyclic STAT3 decoy)]”, the koff with 2B12 Fab stood at 0.37 s⁻¹; with 2C11 Fab it was 0.419 s⁻¹; in the data set on 3B11 Fab, 0.205 s⁻¹; in the data set with 3B12 Fab, 0.0764 s⁻¹; in the data set with 3C8 Fab, 0.277 s⁻¹.
